From US20230295310A1 (ABCELLERA BIOLOGICS, published 2023) come the findings set out here.

The target of the assay is EGFR on HeLa cells (UniProt P00533 25-1210, limits assumed). Briefly: cell-based or functional assay.

B1: GOMP001_bsAb_017 (bispecific antibody, human IgG1, kappa, L234A L235A)
heavy 1: QVQLVQSGAEVKKPGASVKVSCKASGYTFTSHWMHWVRKAPGQGLEWIGEFNPSNGRTNYNEEFKSKATMTVDTSTNTAYMELSSLRSEDTAVYYCASRDYDYDGRYFDYWGQGTLVTVSSASTKGPSVFPLAPSSKSTSGGTAALGCLVADYFPEPVTVSWNSGALTSGVHTFPAVLQSSGLYSLSSVVTVPSSSLGTQTYICNVNHKPSNTKVDEKVEPKSCDKTHTCPPCPAPEAAGGPSVFLFPPKPKDTLMISRTPEVTCVVVDVSHEDPEVKFNWYVDGVEVHNAKTKPREEQYNSTYRVVSVLTVLHQDWLNGKEYKCKVSNKALPAPIEKTISKAKGQPREPQVYTLPPSREEMTDNQVSLTCLVKGFYPSDIAVEWESNGQPENNYKTTPPVLMSDGSFFLASKLTVDKSRWQQGNVFSCSVMHEALHNHYTQKSLSLSPG
light 1: RIQMTQSPSSLSASVGDRVTITCSASSSVTYMYWYQDKPGKAPKLLIYDTSNLASGVPSRFSGSGSGTDYTFTISSLQPEDIATYYCQQWSSHIFTFGQGTKVEIKRTVAAPSVFIFPPSDKQLKSGTARVVCLLNNFYPREAKVQWKVDNALQSGNSQESVTEQDSKDSTYSLSSTLTLSKADYEKHKVYACEVTHQGLSSPVTKSFNRGEC
heavy 2: EVQLVESGGDLVQPGRSLRLSCAASGFTFDDCVIHWVRYAPGKGLEWVSGITWNSGRIGYADRVKGRFTISRDNAKNSLYLQMNSLRVEDTALYYCAKEGNYDFWSTYYRGYFDLWGRGTLVTVSSASTKGPSVFPLAPSSKSTSGGTAALGCLVKDYFPEPVTVSWNSGALTSGVHTFPAVLQSSGLYSLSSVVTVPSSSLGTQTYICNVNHKPSNTKVDKKVEPKSCDKTHTCPPCPAPEAAGGPSVFLFPPKPKDTLMISRTPEVTCVVVDVSHEDPEVKFNWYVDGVEVHNAKTKPREEQYNSTYRVVSVLTVLHQDWLNGKEYKCKVSNKALPAPIEKTISKAKGQPRRPRVYTLPPSREEMTKNQVSLVCLVKGFYPSDIAVEWESNGQPENNYKTTPPVLDSDGSFFLYSVLTVDKSRWQQGNVFSCSVMHEALHNHYTQKSLSLSPG
light 2: DIQMTQSPSSLSASVGDRVTITCRASQGIRNDLGWYQRKPGDAPKRLIYAASSLQGGVPLRFSGSGSGTEFTLTISSLQPEDFATYYCLQHNSYPYTFGQGTKLEIKRTVAAPSVFIFPPSDEQLKSGTASVVCLLNNFYPREAKVQWKVDNALQSGNSQESVTEQDSKDSTYSLSSTLTLSKADYEKHKVYACEVTHQGLSSPVTKSFNRGEC
Take B1: the Max killing % came to 91.4% and the “X… HeLa EC50” value came out at 0.705 nM.

B2: GOMP001_bsAb_019 (bispecific antibody, human IgG1, kappa, L234A L235A)
heavy 1: QVQLVQSGAEVKKPGASVKVSCKASGYTFTSHWMHWVRKAPGQGLEWIGEFNPSNGRTNYNEEFKSKATMTVDTSTNTAYMELSSLRSEDTAVYYCASRDYDYDGRYFDYWGQGTLVTVSSASTKGPSVFPLAPSSKSTSGGTAALGCLVADYFPEPVTVSWNSGALTSGVHTFPAVLQSSGLYSLSSVVTVPSSSLGTQTYICNVNHKPSNTKVDEKVEPKSCDKTHTCPPCPAPEAAGGPSVFLFPPKPKDTLMISRTPEVTCVVVDVSHEDPEVKFNWYVDGVEVHNAKTKPREEQYNSTYRVVSVLTVLHQDWLNGKEYKCKVSNKALPAPIEKTISKAKGQPREPQVYTLPPSREEMTDNQVSLTCLVKGFYPSDIAVEWESNGQPENNYKTTPPVLMSDGSFFLASKLTVDKSRWQQGNVFSCSVMHEALHNHYTQKSLSLSPG
light 1: RIQMTQSPSSLSASVGDRVTITCSASSSVTYMYWYQDKPGKAPKLLIYDTSNLASGVPSRFSGSGSGTDYTFTISSLQPEDIATYYCQQWSSHIFTFGQGTKVEIKRTVAAPSVFIFPPSDKQLKSGTARVVCLLNNFYPREAKVQWKVDNALQSGNSQESVTEQDSKDSTYSLSSTLTLSKADYEKHKVYACEVTHQGLSSPVTKSFNRGEC
heavy 2: EVQLVDSGGGLVQPGGSLRLSCSGSGFTFSSYWMSWVRYAPGKGLEWVANIKQDGSQKYYVDRVKGRFTISRDNVKNSLYLQMNSLRVEDTAVYYCARDESSSWYWYFDLWGRGTLVTVSSASTKGPSVFPLAPSSKSTSGGTAALGCLVKDYFPEPVTVSWNSGALTSGVHTFPAVLQSSGLYSLSSVVTVPSSSLGTQTYICNVNHKPSNTKVDKKVEPKSCDKTHTCPPCPAPEAAGGPSVFLFPPKPKDTLMISRTPEVTCVVVDVSHEDPEVKFNWYVDGVEVHNAKTKPREEQYNSTYRVVSVLTVLHQDWLNGKEYKCKVSNKALPAPIEKTISKAKGQPRRPRVYTLPPSREEMTKNQVSLVCLVKGFYPSDIAVEWESNGQPENNYKTTPPVLDSDGSFFLYSVLTVDKSRWQQGNVFSCSVMHEALHNHYTQKSLSLSPG
light 2: DIQMTQSPSTLSASVGDRVTLTCRASQNIVKWLAWYQRKPGDAPKLLIYKASSLESGVPSWFSGSGSGTEFTLTINSLQPDDFATYYCQQYYTYSRTFGQGTKVEIKRTVAAPSVFIFPPSDEQLKSGTASVVCLLNNFYPREAKVQWKVDNALQSGNSQESVTEQDSKDSTYSLSSTLTLSKADYEKHKVYACEVTHQGLSSPVTKSFNRGEC
B2 displayed a Max killing % of 48.3%.

B3: GOMP001_bsAb_018 (bispecific antibody, human IgG1, kappa, L234A L235A)
heavy 1: EVQLVESGGDLVQPGRSLRLSCAASGFTFDDCVIHWVRKAPGKGLEWVSGITWNSGRIGYADEVKGRFTISRDNAKNSLYLQMNSLRVEDTALYYCAKEGNYDFWSTYYRGYFDLWGRGTLVTVSSASTKGPSVFPLAPSSKSTSGGTAALGCLVADYFPEPVTVSWNSGALTSGVHTFPAVLQSSGLYSLSSVVTVPSSSLGTQTYICNVNHKPSNTKVDEKVEPKSCDKTHTCPPCPAPEAAGGPSVFLFPPKPKDTLMISRTPEVTCVVVDVSHEDPEVKFNWYVDGVEVHNAKTKPREEQYNSTYRVVSVLTVLHQDWLNGKEYKCKVSNKALPAPIEKTISKAKGQPREPQVYTLPPSREEMTDNQVSLTCLVKGFYPSDIAVEWESNGQPENNYKTTPPVLMSDGSFFLASKLTVDKSRWQQGNVFSCSVMHEALHNHYTQKSLSLSPG
light 1: RIQMTQSPSSLSASVGDRVTITCRASQGIRNDLGWYQDKPGIAPKRLIYAASSLQGGVPLRFSGSGSGTEFTLTISSLQPEDFATYYCLQHNSYPYTFGQGTKLEIKRTVAAPSVFIFPPSDKQLKSGTARVVCLLNNFYPREAKVQWKVDNALQSGNSQESVTEQDSKDSTYSLSSTLTLSKADYEKHKVYACEVTHQGLSSPVTKSFNRGEC
heavy 2: QVQLVQSGAEVKKPGASVKVSCKASGYTFTSHWMHWVRYAPGQGLEWIGEFNPSNGRTNYNEKFKSKATMTVDTSTNTAYMELSSLRSEDTAVYYCASRDYDYDGRYFDYWGRGTLVTVSSASTKGPSVFPLAPSSKSTSGGTAALGCLVKDYFPEPVTVSWNSGALTSGVHTFPAVLQSSGLYSLSSVVTVPSSSLGTQTYICNVNHKPSNTKVDKKVEPKSCDKTHTCPPCPAPEAAGGPSVFLFPPKPKDTLMISRTPEVTCVVVDVSHEDPEVKFNWYVDGVEVHNAKTKPREEQYNSTYRVVSVLTVLHQDWLNGKEYKCKVSNKALPAPIEKTISKAKGQPRRPRVYTLPPSREEMTKNQVSLVCLVKGFYPSDIAVEWESNGQPENNYKTTPPVLDSDGSFFLYSVLTVDKSRWQQGNVFSCSVMHEALHNHYTQKSLSLSPG
light 2: DIQMTQSPSSLSASVGDRVTITCSASSSVTYMYWYQRKPGDAPKLLIYDTSNLASGVPSRFSGSGSGTDYTFTISSLQPEDIATYYCQQWSSHIFTFGQGTKVEIKRTVAAPSVFIFPPSDEQLKSGTASVVCLLNNFYPREAKVQWKVDNALQSGNSQESVTEQDSKDSTYSLSSTLTLSKADYEKHKVYACEVTHQGLSSPVTKSFNRGEC
On to B3, for which the Max killing % amounted to 97.3% and the “X… HeLa EC50” value was 0.111 nM.

B4: GOMP001_bsAb_020 (bispecific antibody, human IgG1, kappa, L234A L235A)
heavy 1: EVQLVDSGGGLVQPGGSLRLSCSGSGFTFSSYWMSWVRKAPGKGLEWVANIKQDGSQKYYVDEVKGRFTISRDNVKNSLYLQMNSLRVEDTAVYYCARDESSSWYWYFDLWGRGTLVTVSSASTKGPSVFPLAPSSKSTSGGTAALGCLVADYFPEPVTVSWNSGALTSGVHTFPAVLQSSGLYSLSSVVTVPSSSLGTQTYICNVNHKPSNTKVDEKVEPKSCDKTHTCPPCPAPEAAGGPSVFLFPPKPKDTLMISRTPEVTCVVVDVSHEDPEVKFNWYVDGVEVHNAKTKPREEQYNSTYRVVSVLTVLHQDWLNGKEYKCKVSNKALPAPIEKTISKAKGQPREPQVYTLPPSREEMTDNQVSLTCLVKGFYPSDIAVEWESNGQPENNYKTTPPVLMSDGSFFLASKLTVDKSRWQQGNVFSCSVMHEALHNHYTQKSLSLSPG
light 1: RIQMTQSPSTLSASVGDRVTLTCRASQNIVKWLAWYQDKPGKAPKLLIYKASSLESGVPSWFSGSGSGTEFTLTINSLQPDDFATYYCQQYYTYSRTFGQGTKVEIKRTVAAPSVFIFPPSDKQLKSGTARVVCLLNNFYPREAKVQWKVDNALQSGNSQESVTEQDSKDSTYSLSSTLTLSKADYEKHKVYACEVTHQGLSSPVTKSFNRGEC
heavy 2: QVQLVQSGAEVKKPGASVKVSCKASGYTFTSHWMHWVRYAPGQGLEWIGEFNPSNGRTNYNEKFKSKATMTVDTSTNTAYMELSSLRSEDTAVYYCASRDYDYDGRYFDYWGRGTLVTVSSASTKGPSVFPLAPSSKSTSGGTAALGCLVKDYFPEPVTVSWNSGALTSGVHTFPAVLQSSGLYSLSSVVTVPSSSLGTQTYICNVNHKPSNTKVDKKVEPKSCDKTHTCPPCPAPEAAGGPSVFLFPPKPKDTLMISRTPEVTCVVVDVSHEDPEVKFNWYVDGVEVHNAKTKPREEQYNSTYRVVSVLTVLHQDWLNGKEYKCKVSNKALPAPIEKTISKAKGQPRRPRVYTLPPSREEMTKNQVSLVCLVKGFYPSDIAVEWESNGQPENNYKTTPPVLDSDGSFFLYSVLTVDKSRWQQGNVFSCSVMHEALHNHYTQKSLSLSPG
light 2: DIQMTQSPSSLSASVGDRVTITCSASSSVTYMYWYQRKPGDAPKLLIYDTSNLASGVPSRFSGSGSGTDYTFTISSLQPEDIATYYCQQWSSHIFTFGQGTKVEIKRTVAAPSVFIFPPSDEQLKSGTASVVCLLNNFYPREAKVQWKVDNALQSGNSQESVTEQDSKDSTYSLSSTLTLSKADYEKHKVYACEVTHQGLSSPVTKSFNRGEC
With B4, the Max killing % was found to be 79.6% and the “X… HeLa EC50” value amounted to 0.102 nM.
